Series [1] is described as follows: Mean glucose levels in rats administered various substituted DKP/insulin powders (Example 6, FIG. 9). It counts as in vivo, female Sprague Dawley rats. The settings on record: insulin 0.5 U/kg subcutaneous, pre-dose 132 mg/dL. The text has this: (§1) For this study, substituted diketopiperazine/insulin powders were made each containing either (E)-3-(4-(3,6-dioxopiperazin-2-yl)butylcarbamoyl)-acrylic acid (Compound 3) and insulin; or (E)-3-(3-(3,6-dioxopiperazin-2-yl)propylcarbamoyl)-acrylic acid (Compound 4) and insulin; or (E)-3-(4-(5-isopropyl-(3,6-dioxopiperazin-2-yl)butylcarbamoyl)-acrylic acid (Compound 5) and insulin, and administered to each of 3 female Sprague Dawley rats per group via pulmonary insufflation.
(§2) The rats were divided into 5 groups as follows. Group 1 rats received a formulation containing Compound 3 with an 11.4% insulin content (Formulation 3) via pulmonary insufflation. Group 2 rats were administered a formulation Compound 3 with a 25% insulin content (Formulation 3) by pulmonary insufflation. Group 3 rats received a formulation of Compound 4 with an 11.4% insulin content (Formulation 4) by pulmonary insufflation. Group 4 rats received a formulation of Compound 5 with 11.4% insulin content by pulmonary insufflation. Group 5 rats received insulin (0.5 U/kg) via subcutaneous administration.
(§3) Blood samples were taken on the day of dosing for each rat per group before (0 minutes) and 10, 20, 40, and 60 minutes after administration of the formulations, except for the insulin control group (group 5), for which an additional sample was collected at 120 minutes after dosing. At each time point, approximately 10 μL of whole blood was collected from the lateral tail vein of rats in each group and analyzed for measurements of insulin and glucose concentrations.

Series [2] in a line: Mean serum insulin concentrations in rats administered DKP and insulin powders (Example 5, FIG. 8). The note with it: 20 minutes post dose; 1.4 mg insulin in saline; pulmonary liquid instillation (INS).
Description: (§4) Blood samples were taken on the day of dosing for each rat per group at pre-dose (0 minutes), 5, 20, 40, 60, and 120 minutes post dose. […] Body weights ranged from 214-250 grams.
A short description of series [3]: Mean serum insulin levels and relative bioavailability of substituted DKP/insulin powders (Example 6, FIG. 10, Table 2).
From the text: as §1, §2, §3

For series [4] the following is noted: rat, in vivo.
Description: as §4
[5] abbreviates: serum insulin, insulin 0.5 U/kg subcutaneous.

With insulin, the blood glucose level in series [1] (40 minutes post dose) came to 43 mg/dL; in series [1] (1 hour post dose) it was 42 mg/dL; in series [1] (2 hours post dose), 34 mg/dL. For the same compound, the serum insulin concentration in series [2] is 6703 μU/mL; in series [3] (20 minutes post dose, insulin by subcutaneous injection) it was 9360 μU/mL. Moreover, the BIOAVAILABILITY in series [3] (insulin 0.5 U/kg subcutaneous (reference)) is 100%. Besides, the Tmax in series [3] (setting [5]) was 20 min. This compound also came in with a T½ in series [3] (setting [5]) of 9.18 min.

In the case of `O=C(O)/C=C/C(=O)NCCCC1NC(=O)C(CCCNC(=O)/C=C/C(=O)O)NC1=O` (stereo not drawn) [Compound 2, (E)-3,6-bis[(N-carboxy-2-propenyl)-amidopropyl]-2,5-diketopiperazine], the insulin concentration in series [4] stood at 505 μU/mL.

(Values after patent US10172850B2, “Substituted diketopiperazine analogs for use as drug delivery agents” (MannKind Corporation, priority 2008, dated 2019).)
